Measurements: patent publication US20180030149A1 (AVEO PHARMACEUTICALS, published 2018)
Where a chain is given by its changes, count along the chain named. Numbers in names are those of the source. Like-named read-outs stand apart in the source and are kept apart here.

B1: 24C05 (antibody, mouse IgG1, kappa)
heavy: EVQLVESGGGLVKPGGSLKLSCAASGFTFSDYAMSWVRQTPEKRLEWVATISDGGTYTYYPDNVKGRFTISRDNAKNNLYLQMSHLKSEDTAMYYCAREWGDYDGFDYWGQGTTLTVSSAKTTPPSVYPLAPGSAAQTNSMVTLGCLVKGYFPEPVTVTWNSGSLSSGVHTFPAVLQSDLYTLSSSVTVPSSTWPSQTVTCNVAHPASSTKVDKKIVPRDCGCKPCICTVPEVSSVFIFPPKPKDVLTITLTPKVTCVVVDISKDDPEVQFSWFVDDVEVHTAQTQPREEQFNSTFRSVSELPIMHQDWLNGKEFKCRVNSAAFPAPIEKTISKTKGRPKAPQVYTIPPPKEQMAKDKVSLTCMITDFFPEDITVEWQWNGQPAENYKNTQPIMDTDGSYFVYSKLNVQKSNWEAGNTFTCSVLHEGLHNHHTEKSLSHSPGK
light: DIQMTQSPSSLSASLGERVSLTCRASQEISGYLSWLQQKPDGTIKRLIYAASTLDSGVPKRFSGSRSGSDYSLTIGSLESEDLADYYCLQYDSYPYTFGGGTKLEIKRADAAPTVSIFPPSSEQLTSGGASVVCFLNNFYPRDINVKWKIDGSERQNGVLNSWTDQDSKDSTYSMSSTLTLTKDEYERHNSYTCEATHKTSTSPIVKSFNRNEC
notes: Murine IgG1/kappa, from hybridoma; also called murine 24C05; 24C05 IgG1
B2: Sh24C05-25 N62S IgG1 (antibody)
heavy: not shown
light: DIQMTQSPSSLSASVGDRVTITCRASQEISGYLSWFQQKPGKAPKSLIYAASTLDSGVPSRFSGSGSGTDFTLTISSLQPEDFATYYCLQYDSYPYTFGQGTKLEIKRTVAAPSVFIFPPSDEQLKSGTASVVCLLNNFYPREAKVQWKVDNALQSGNSQESVTEQDSKDSTYSLSSTLTLSKADYEKHKVYACEVTHQGLSSPVTKSFNRGEC
notes: Humanized, human IgG1/kappa
B3: 11G01 (antibody, mouse IgG1, kappa, V domains shown)
VH: QVQLQQSDAELVKPGASVKISCKVSGYTFTDHIIHWMKQRPEQGLEWIGYIYPRDGYIKYNEKFKGKATLTADKSSSTAYMQVNSLTSEDSAVYFCARGYYYAMDYWGQGTSVTVSS
VL: DVLMTQTPLSLPVSLGDQASISCRSSQSIVHSIGNTYLEWYLQKPGQSPKLLIYKVSNRFSGVPERFSGSGSGTDFTLKISRVEAEDLGVYYCFQGSHVPFTFGSGTKLEIKR
notes: Murine IgG1/kappa, from hybridoma; also called anti-hErbB3 monoclonal antibody 11G01
B4: 12A07 (antibody, mouse IgG1, kappa, V domains shown)
VH: QVQLLQPGAELVRPGTSVKLSCKTSGYTFSSYWMHWVKQRPGQGLEWIGMIDPSDVYTNYNPKFKGKATLTVDTSSSTAYMQLSSLTSEDSAVYYCARNYSGDYWGQGTTLTVSS
VL: B3 VL with T7I, I33N, E65D, H98Y, F101W, S105G
notes: Murine IgG1/kappa, from hybridoma; also called anti-hErbB3 monoclonal antibody 12A07
B5: 04D01 (antibody, mouse IgG1, kappa, V domains shown)
VH: QVQLQQPGAELVRPGTSVKLSCKASGYTFTSHWLHWVKQRPGQGLEWIGVLDPSDFYSNYNQNFKGKATLTVDTSSSTAYMQLSSLTSEDSAVYYCARGLLSGDYAMDYWGQGTSVTVSS
VL: B3 VL with T7I, I33N, L51S, E65D, H98Y, F101W, S105G
notes: Murine IgG1/kappa, purified from hybridoma; also called anti-hErbB3 monoclonal antibody 04D01
B6: 22A02 (antibody, mouse IgG1, kappa, V domains shown)
VH: B4 VH with L5Q, T24A, S30T, S31N, V56S
VL: B3 VL with I33N, E65D, H98Y, F101W, S105G
notes: Murine IgG1/kappa, from hybridoma; also called anti-hErbB3 monoclonal antibody 22A02
B7: 18H02 (antibody, mouse IgG1, kappa, V domains shown)
VH: QIQLVQSGPELKKPGEAVKISCKSSGYTFTTYGMSWVKQAPGRALKWMGWINTYSGVPTYADDFKGRFAFSLESSASTAYLQINNLKNEDTATYFCARGRDGYQVAWFAYWGQGTLVTVSA
VL: ETTVTQSPASLSMAIGDKVTIRCITSTDIDDDMNWFQQKPGEPPKLLISEGNTLRPGVPSRFSGSGYGTDFIFTIENMLSEDVADYYCLQSDNLPYTFGGGTKLEIKR
notes: Murine IgG1/kappa, from hybridoma; also called anti-hErbB3 monoclonal antibody 18H02

Key:
human ErbB3 [1] = target: T1, human ErbB3 (human, UniProt P21860 20-1342); experiment: cell-based or functional assay
human ErbB3 [2] = target: T1, human ErbB3; experiment: cell-based or functional assay; remark: listed apart in the source
[3] = target: T2, recombinant human ErbB3/Fc fusion protein (human, UniProt P21860 20-643); experiment: ECL competition; inhibition of NRG1-β1 binding to plate-coated rhErbB3/Fc
T2 construct: Bought (R&D Systems, Cat. No. 348-RB); the NRG1-α1 assay names Cat. No. 4518-RB instead; also called rhErbB3-Fc; rhErbB3/Fc; not shown: Fc portion of the bought fusion protein
Protocol: (§1) MA2400 96-well standard binding plates (Meso Scale Discovery, Cat. No. L15XA-6) were coated with 50 μl of 0.5 μg/mL rhErbB3/Fc (R&D systems, Cat. No. 348-RB) in PBS (Invitrogen, Cat. No. 14040-133) for overnight at 4° C. with no agitation. The plates then were washed 3 times with PBS+0.1% Tween20 (Sigma P5927) and blocked with 200 μl of PBS containing 5% BSA (Sera Care Life Sciences, Cat. No. AP-4510-80) for 1.5 hour at room temperature. After washing the plates 3 times with PBS, 25 μl of the antibody dilutions were added to the plates for another hour at room temperature with agitation. […] The plates then were washed 3 times with PBS, and 150 μl of 1× read buffer (Meso Scale Discovery, Cat. No. R92TC-1) was added to each well before the plates were analyzed on a Sector® Imager 2400 (Meso Scale Discovery) instrument.

[4] = target: T2, recombinant human ErbB3/Fc fusion …; experiment: SPR Biacore T100, 25 C; antibody captured on anti-mouse IgG, rhErbB3-Fc injected
Protocol: Rabbit anti-mouse IgGs (Biacore, Cat. No. BR-1008-38) were immobilized on carboxymethylated dextran CM4 sensor chips (Biacore, Cat. No. BR-1005-34) by amine coupling (BIAcore, Cat. No. BR-1000-50) using a standard coupling protocol according to vendor's instructions. The analyses were performed at 25° C., using PBS (Invitrogen, Cat. No. 14040-133) containing 0.05% surfactant P20 (Biacore, Cat. No. BR-1000-54) as running buffer.
The antibodies were captured in individual flow cells at a flow rate of 10 μl/minute. Injection time was varied for each antibody to yield an Rₘₐₓ between 30 and 60 RU. […] The dissociation phase was monitored for up to 3600 seconds. The surface was then regenerated with two 60-seconds injection of 10 mM Glycine-HCl, pH 1.7 (made from Glycine pH 1.5 (Biacore, Cat. No. BR-1003-54) and pH 2.0 (Biacore, Cat. No. BR-1003-55)) at a flow rate of […].
Kinetic parameters were determined using the kinetic function of the BIAevaluation software (Biacore) with double reference subtraction. Kinetic parameters for each antibody, kₐ (association rate constant), kd (dissociation rate constant) and KD (equilibrium dissociation constant) were determined.

[5] = target: T2, recombinant human ErbB3/Fc fusion …; experiment: ECL (MSD) competition: rhErbB3/Fc coated on the plate, antibody dilutions, then NRG1-β1 at 0.25 µg/ml; bound NRG1-β1 detected
Protocol: as §1

[6] = target: T2, recombinant human ErbB3/Fc fusion …; experiment: ECL competition; inhibition of NRG1-β1 binding to plate-coated rhErbB3/Fc; remark: listed apart in the source
Protocol: (§2) Multi-array 96-well standard binding plates (Meso Scale Discovery, Cat. No. L15XA-3) were coated with 50 μl of 0.5 μg/mL rhErbB3/Fc (R&D systems, Cat. No. 348-RB) in PBS (Invitrogen, Cat. No. 14040-133) for one hour at room temperature with no agitation. The plates then were washed three times with PBS+0.1% Tween20 (Sigma P5927) and blocked with 200 μl of 100% Horse Serum, heat inactivated (GIBCO, Cat. No. 26050-088) for 1.5 hours at room temperature. After washing the plates three times with PBS+0.1% Tween, 25 μl of the antibody dilutions were added to the plates for another hour at room temperature with agitation. […] The plates then were washed three times with PBS+0.1% Tween, and 150 μl of 1× read buffer (Meso Scale Discovery, Cat. No. R92TC-1) was added to each well before the plates were analyzed on a Sector® Imager 2400 (Meso Scale Discovery) instrument.

[7] = target: T3, recombinant human ErbB3 monomeric protein (cleaved rhErbB3) (human, UniProt P21860 20-643, limits assumed); experiment: SPR Biacore 37 C; purified antibody captured on anti-human Fc, cleaved rhErbB3 0.3125-5.0 nM
T3 construct: Monomer made by protease cleavage of the Fc fusion; also called Monomeric ErbB3
Protocol: The analyses were performed at 37° C. using PBS (Invitrogen, Catalog No. 14040-133) containing 0.05% surfactant P20 (Biacore, Catalog No. BR-1000-54) as running buffer.
The antibodies were captured in individual flow cells at a flow rate of […]. Injection time was varied for each antibody to yield an Rₘₐₓ between 30 and 60 RU. […] The dissociation phase was monitored for up to 1200 seconds. The surface was then regenerated with two 60 second injections of Glycine pH 2.25 (made from Glycine pH 2.0 (Biacore, Catalog No. BR-1003-55) and pH 2.5 (Biacore, Catalog No. BR-1003-56)) at […].
The binding affinities and kinetics of certain purified monoclonal antibodies were also determined. To further characterize certain antibodies, the surface plasmon resonance experiments described above were conducted using concentrations of cleaved rhErbB3 between 0.3125 nM and 5.0 nM (a 2-fold serial dilution).

[8] = target: T2, recombinant human ErbB3/Fc fusion …; experiment: ECL (MSD) competition: rhErbB3/Fc coated on the plate, antibody dilutions, then NRG1-β1 at 0.25 µg/ml; bound NRG1-β1 detected; remark: listed apart in the source
Protocol: as §2

Binder | inhibition of NRG1-β1 induced phosphorylation of Akt in MCF7 and DU145 cells (ELISA) (human ErbB3 [1]) | inhibition of NRG1-β1 induced phosphorylation of ErbB3 in SKBR-3 cells (ELISA, 5 µg/ml antibody) (human ErbB3 [1]) | IC50, NRG1-β1 dependent proliferation of MCF7 cells (MTT) (human ErbB3 [2]) | IC50 [3] | Kd [4] | koff [4] | kon [4] | IC50 (read off the curve) [5] | inhibition of phosphorylation of ErbB3 in exponentially growing SKBR-3 cells (ELISA) (human ErbB3 [1]) | IC50 [6] | Kd [7] | koff [7] | kon [7] | IC50 (read off the curve) [8]
B1 | ≥ 80% | ≥ 50% | 390 pM | 337 pM | 6.5 pM | 9.2e-06 s⁻¹ | 1.5e+06 M⁻¹ s⁻¹ | ~300 pM |  |  |  |  |  | 
B2 |  |  |  |  |  |  |  |  | ≥ 50% | 122 pM | 160 pM | 0.00045 s⁻¹ | 2.9e+06 M⁻¹ s⁻¹ | ~100 pM
B3 | ≥ 80% | ≥ 50% | 1980 pM |  | 91 pM | 2.2e-05 s⁻¹ | 270000 M⁻¹ s⁻¹ |  |  |  |  |  |  | 
B4 | ≥ 80% | ≥ 50% | 740 pM | 235 pM | 300 pM | 0.00019 s⁻¹ | 620000 M⁻¹ s⁻¹ | ~200 pM |  |  |  |  |  | 
B5 | ≥ 80% | ≥ 50% | 470 pM | 223 pM | 250 pM | 9.3e-05 s⁻¹ | 380000 M⁻¹ s⁻¹ | ~100 pM |  |  |  |  |  | 
B6 | ≥ 80% | ≥ 50% | 1620 pM | 242 pM | 320 pM | 0.00022 s⁻¹ | 700000 M⁻¹ s⁻¹ | ~200 pM |  |  |  |  |  | 
B7 | ≥ 80% | ≥ 50% | 1000 pM | 346 pM | 91 pM | 2.5e-05 s⁻¹ | 280000 M⁻¹ s⁻¹ | ~300 pM |  |  |  |  |  | 
